In article PMC7515630, “Optogenetic activation of heterotrimeric G-proteins by LOV2GIVe, a rationally engineered modular protein” (eLife, 2020):

Molecular target: T1, GST-LOV2GIV (L) (Avena sativa | , FMN chromophore. GST omitted. The exact sequence and junction are in Supplementary file 1, so limits are by convention: AsLOV2 404-546 and the UniProt GBA motif. The paper's GIV numbering is the displ)
T1 chain: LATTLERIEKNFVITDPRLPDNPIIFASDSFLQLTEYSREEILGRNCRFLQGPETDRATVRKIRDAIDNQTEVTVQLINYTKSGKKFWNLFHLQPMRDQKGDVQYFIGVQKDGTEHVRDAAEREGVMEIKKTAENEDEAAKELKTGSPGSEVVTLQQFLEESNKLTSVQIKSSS
Test: pull-down; ~20 µg purified GST-fused construct on glutathione-agarose beads, 3 µg (~300 nM) purified His-tagged Gα; 4 hr at 4°C in 50 mM Tris-HCl pH 7.4, 100 mM NaCl, 0.4% NP-40, 10 mM MgCl2, 5 mM EDTA, 1 mM DTT, 30 µM GDP; immunoblot for His
Conditions: both partners purified

B1: His-Gαi3 (rat) (natural protein, UniProt P08753 1-354, looked up)
chain: MGCTLSAEDKAAVERSKMIDRNLREDGEKAAKEVKLLLLGAGESGKSTIVKQMKIIHEDGYSEDECKQYKVVVYSNTIQSIIAIIRAMGRLKIDFGEAARADDARQLFVLAGSAEEGVMTSELAGVIKRLWRDGGVQACFSRSREYQLNDSASYYLNDLDRISQTNYIPTQQDVLRTRVKTTGIVETHFTFKELYFKMFDVGGQRSERKKWIHCFEGVTAIIFCVALSDYDLVLAEDEEMNRMHESMKLFDSICNNKWFTDTSIILFLNKKDLFEEKIKRSPLTICYPEYTGSNTYEEAAAYIQCQFEDLNRRKDTKEVYTHFTCATDTKNVQFVFDAVTDVIIKNNLKECGLY
notes: rat Gαi3, G-protein alpha subunit i3; kept with GDP in the buffers; also called pET28b-Gαi3; source: E. coli BL21(DE3), purified (HisPur cobalt resin, desalting)
  fold binding over the dark conformation, LOV2GIV (D): ~3 fold
